A short description of test [1]: Crotonyl-CoA reductase assay, NADPH decrease at 340 nm. It is filed as biochemical. The conditions noted are these: 5 mM trans crotonyl-CoA, 0.1-0.4 mM NADPH, 0.5-1 mg/ml enzyme, 37° C., pH 7.5. From the text:
Sequences of short-chain dehydrogenases/reductases inferred from the genomes of prokaryotic organisms were generated by oligonucleotide concatenation to fit the codon usage of E. coli. […] The genes thus synthesized were cloned in a pET25b expression vector and the proteins were produced according to the protocol described in Example 1.

Test [2] is described as follows: Screening for crotyl alcohol phosphorylation activity (pyruvate kinase/lactate dehydrogenase coupled ADP assay). The class given is biochemical. The settings on record: 37° C.; for Activity, micromole/min · mg protein: 50 mM crotyl alcohol (cis and trans mixture), 5 mM ATP, 0.05 mg/ml enzyme, pH 7.5; for ADP production in the presence of crotyl alcohol: 50 mM crotyl alcohol. The protocol: The release of ADP that is associated with crotyl alcohol phosphorylation was quantified using the pyruvate kinase/lactate dehydrogenase coupled assay (FIG. 5). The purified 4-methyl-5-(2-hydroxyethyl)thiazole kinases from Escherichia coli (SEQ ID NO:2), Bacillus subtilis (SEQ ID NO:1), Rhizobium leguminosarum (SEQ ID NO:3) were evaluated for their ability to phosphorylate crotyl alcohol releasing ADP. The studied enzymatic reaction was carried out under the following conditions at 37° C.: • 50 mM Tris-HCl pH 7.5 • 10 mM MgCl2 • 100 mM KCl • 5 mM ATP • 0.4 mM NADH • 1 mM Phosphoenolpyruvate • 3 U/ml Lactate dehydrogenase • 1.5 U/ml Pyruvate kinase • 50 mM crotyl alcohol, mixture cis and trans • The pH was adjusted to 7.5
Each assay was started by addition of a particular enzyme at a concentration 0.05 mg/ml and the disappearance of NADH was monitored by following the absorbance at 340 nm.

B1: Short chain alcohol dehydrogenase-like protein from Marinobacter manganoxydans (SEQ ID NO: 14): short-chain dehydrogenase from Marinobacter manganoxydans (Uniprot G6YQS9) (protein)
chain: MNYFLTGGTGFIGRFLVEKLLARGGTVHVLVREQSQDKLDKLRERWGADETQVKAVIGDLTSKNLGIDAKTMKALKGKIDHFFHLAAVYDMGADEEAQQATNIEGTRAAVNAAEAMGAKHFHHVSSIAAAGLFKGIFREDMFEEAEKLDHPYLRTKHESEKVVREECKVPFRIYRPGMVIGHTATGEMDKVDGPYYFFKMIQKIRHALPQWVPTIGVEGGRLNIVPVDFVVNAMDHIAHLEGEDGKCFHLVDTDPYKVGEILNIFSEAGHAPRMGMRIDSRMFGFIPPFIRQSLKNLPPVKRLTSAILDDMGIPPSVMSFINYPTRFDARETERVLKGTGIEVPRLPDYAPVIWDYWERNLDPDLFKDRTLKGTVEGRVCVVTGATSGIGLATAQKLADAGAILVIGARKLERLKEVAAELESRGASVHAYPCDFSDMDACDEFVKTVLDNHGQVDVLVNNAGRSIRRSLDLSFDRFHDFERTMQLNYFGSVRLIMGFAPKMLENRRGHVVNISSIGVLTNAPRFSAYVASKSALDAFSR
modifications: Marinobacter manganoxydans
In the case of B1, the “Activity, μmol/min/mg protein” value in test [1] worked out at 7.5 μmol/min/mg protein.

B2: E. coli: purified 4-methyl-5-(2-hydroxyethyl)thiazole kinase from Escherichia coli (SEQ ID NO:2) (protein)
chain: MQVDLLGSAQSAHALHLFHQHSPLVHCMTNDVVQTFTANTLLALGASPAMVIETEEASQFAAIASALLINVGTLTQPRAQAMRAAVEQAKSSQTPWTLDPVAVGALDYRRHFCHELLSFKPAAIRGNASEIMALAGIANGGRGVDTTDAAANAIPAAQTLARETGAIVVVTGEMDYVTDGHRIIGIHGGDPLMTKVVGTGCALSAVVAACCALPGDTLENVASACHWMKQAGERAVARSEGPGSFVPHFLDALWQLTQEVQA
modifications: E. coli
Turning to B2, in test [2], the “Activity, micromole/min · mg protein” value is given as 0.220 micromole/min · mg protein; the “ADP production in the presence of crotyl alcohol” value was “reproducible and significant increase in ADP production”.

B3: Short chain alcohol dehydrogenase-like protein from Hahella chejuensis: short-chain dehydrogenase from Hahella chejuensis (Uniprot Q2SCE0; SEQ ID NO: 17) (protein, listed as Hahella chejuensis)
chain: MNYFVTGGTGFIGRFLVPKLLKRGGTVYLLVREASLPKLDELRERWNASDEQVVGVVGDLAQPMLGVSEKDAAMLRGKVGHFFHLAAIYDMQASAESQEQANIEGTRNAVKLADSLKAACFHHVSSIAAAGLYRGIFREDMFEEAEKLDNPYLRTKHESEKVVREECQTPWRVYRPGMVVGHSKTGEIDKIDGPYYFFKLIQKLRSALPQWMPTVGLEGGRINIVPVDFVVDAMDHIAHAEGEDGKCFHLTDPDPYKVGEILNIFAEAGHAPKMAMRIDARMFGFIPPMIRQGIARLPPVQRMKNAVLNDLGIPDEVMSFINYPTRFDNRETERLLKGTAIAVPRLQDYSPAIWDYWERHLDPDLHKDRTLRGAVEGRVCVITGATSGIGLSAARKLAEAGAKVVIAARTLEKLQEVKKELEELGGEVYEYSVDLSDLEDCDRFVANVLKDLGHVDVLVNNAGRSIRRSIQHAFDRFHDFERTMQLNYFGSLRLIMGFAPSMLERRRGHIVNISSIGVLTNAPRFSAYVASKAALDAFSRCAAAEFSDKNVTFTTINMPLVRTPMISPTKIYDSVPTLTPEEAADLVAEAIIHRPKRIATRLGVFAQVLHSMAPKFSEIIMNTGFKMFPDSSAATGGKDGEKPKVSTEQVAFAAIMRGIHW
Consider B3, for which the “Activity, μmol/min/mg protein” value in test [1] is given as 4.9 μmol/min/mg protein.

B4: Rh. leguminosarum: purified 4-methyl-5-(2-hydroxyethyl)thiazole kinase from Rhizobium leguminosarum (SEQ ID NO:3) (protein, listed as Rhizobium leguminosarum)
chain: MQTRTTPGAMLKAMREKPPLVQCITNYVAMNIAANVLLAAGASPAMVHAAEEAGEFAAIASALTINIGTLSTQWIDGMQAAAKAATSAGKPWVLDPVAHYATAFRRNAVAELLALKPTIIRGNASEIIALAGGESRGQGVDSRDPVEQAEGSARWLAERQRAVVAVTGAVDFVTDGERAVRIEGGSALMPQVTALGCSLTCLVGAFAATAPEDIFGATVAALSTFAIAGEEAALGAAGPGSFSWRFLDALAALDAETLDARARISAA
Turning to B4, in test [2], the “Activity, micromole/min · mg protein” value is 0.087 micromole/min · mg protein; the “ADP production in the presence of crotyl alcohol” value was “reproducible and significant increase in ADP production”.

B5: Short chain alcohol dehydrogenase-like protein from Marinobacter algicola (SEQ ID NO: 16): short-chain dehydrogenase from Marinobacter algicola (Uniprot A6EUH6) (protein)
chain: MNYFLTGGTGFIGRFLVEKLLARGGTVHVLVREQSQEKLDKLRERWGADESRVKAVIGDLTSPNLGIDAKTMKSLKGNIDHFFHLAAVYDMGADEKSQQATNIEGTHSAVNAAAAMEAGCFHHVSSIAAAGLFKGTFREDMFEEAEKLDHPYLLTKHESEKVVRESCKVPFRIYRPGMVVGHSKTGEMDKVDGPYYFFKMIQKIRHALPQWVPTIGIEGGRLNIVPVDFVVNAMDHIAHLKGEDGNCFHLVDSDPYKVGEILNIFSEAGHAPRMAMRIDSRMFGFVPPFIRQSLKNLPPVKRLTTALLDDMGIPPSVLSFINYPTRFDARETERVLKDTGIVVPRLESYAAVLWDFWERNLDPDLFKDRTLRGTVEGKVCVITGGTSGIGLATAQKLADAGAILVIGARKKERLMEVAAELEARGGNVHAYQCDFADMDDCDRFVKTVLDNHGHVDVLVNNAGRSIRRSLALSFDRFHDFERTMQLNYFGSVRLIMGFAPAMLERRRGHVVNISSIGVLTNAPRFSAYVASKSALDTFSRCAAAEWSDRNVTFTTINMPLVKTPMIAPTKIYDSVPTLTPDEAAEMVADAIVYRPKRIATRLGIFAQVMQALAPKMGEIVMNTGYRMFPDSPAAAGSRSGAKPKVSSEQVAFAAIMRGIYW
modifications: Marinobacter algicola DG893
Turning to B5, the “Activity, μmol/min/mg protein” value in test [1] amounted to 4 μmol/min/mg protein.

B6: B. subtilis: purified 4-methyl-5-(2-hydroxyethyl)thiazole kinase from Bacillus subtilis (SEQ ID NO:1) (protein, listed as Bacillus subtilis)
chain: MDAQSAAKCLTAVRRHSPLVHSITNNVVTNFTANGLLALGASPVMAYAKEEVADMAKIAGALVLNIGTLSKESVEAMIIAGKSANEHGVPVILDPVGAGATPFRTESARDIIREVRLAAIRGNAAEIAHTVGVTDWLIKGVDAGEGGGDIIRLAQQAAQKLNTVIAITGEVDVIADTSHVYTLHNGHKLLTKVTGAGCLLTSVVGAFCAVEENPLFAAIAAISSYGVAAQLAAQQTADKGPGSFQIELLNKLSTVTEQDVQEWATIERVTVS
As for B6, the “Activity, micromole/min · mg protein” value in test [2] is 0.014 micromole/min · mg protein.

B7: Short chain alcohol dehydrogenase-like protein from Marinobacter sp. ELB17 (SEQ ID NO: 15): short-chain dehydrogenase from Marinobacter sp. ELB17 (Uniprot A3JCC5) (protein)
chain: MNYFVTGGTGFIGRFLIARLLARGAIVHVLVREQSVQKLADLREKLGADEKQIKAVVGDLTAPGLGLDKKTLKQLSGKIDHFFHLAAIYDMSASEESQQAANIDGTRAAVAAAEALGAGIFHHVSSIAVAGLFKGTFREDMFAEAGKLDHPYFSTKHESERVVRDECKLPFRIYRPGMVIGDSATGEMDKVDGPYYFFKMIQKIRGALPQWVPTIGLEGGRLNIVPVNFVADALDHIAHLPDEDGKCFHLVDSDPYKVGEILNIFCEAGHAPKMGMRIDSRMFGFVPPFIRQSLKNLPPVKRMGRALLDDLGIPASVLSFINYPTRFDARETERVLQGTGIEVPRLPDYAPVIWDYWERNLDPDLFTDRTLRGTVEGKVCVVTGATSGIGLATAEKLADAGAILVIGARTQETLDQVSAQLNARGADVHAYQCDFADMDACDRFIQTVSENHGAVDVLINNAGRSIRRSLDKSFDRFHDFERTMQLNYFGSLRLIMGFAPAMLERRRGHIINISSIGVLTNAPRFSAYVASKAALDSFSRCAAAEWSDRHVCFTTINMPLVKTPMIAPTKIYDSVPTLSPEEAADMVVNAIVYRPKRIATRMGVFAQVLNAVAPKASEILMNTGYKMFPDSMPKKGKEVSAEKGASTDQVAFAAIMRGIHW
modifications: Marinobacter sp. ELB17
On to B7, for which the “Activity, μmol/min/mg protein” value in test [1] is recorded as 1.2 μmol/min/mg protein.
